Test [1] deals with T1, HDAC1:MTA1 162–354 complex (UniProt Q13547 1-482; Q13330 162-354).
T1 construct: HDAC1, untagged; MTA1 residues 162-354; Unlabelled complex formed beforehand, used in the anisotropy titration; also called MTA1:HDAC1 complex; HM; source: HEK293F, co-transfected, purified (FLAG resin, TEV cleavage, gel filtration); not shown: His10, N-terminal, cleaved; Flag3, N-terminal, cleaved
The experiment in a line: fluorescence polarisation; fluorescence anisotropy of 5-FAM PWWP2A peptide with unlabelled HDAC1:MTA1 162-354 complex; room temperature; 50 mM Tris pH 7.5, 150 mM KAc, 0.15 mg/mL BSA, 0.03% Tween-20; excitation 480 nm, emission 535 nm. The note with it: both partners purified.

For test [2], the target named is T2, His10-Flag3-TEV-MTA1 162-546 (UniProt Q13330 162-546).
T2 construct: MTA1 residues 162-546 (ELM2 and SANT domains and an additional domain that recruits RBBP4); The complex was captured by the Flag tag and then cut from the resin with TEV before gel filtration; also called FLAG-MTA1 162-546; MTA1-long; source: HEK293F, co-transfected, purified on FLAG resin, TEV cleavage, gel filtration; not shown: His10, N-terminal, kept; Flag3, N-terminal, kept
T2 sequence (looked up): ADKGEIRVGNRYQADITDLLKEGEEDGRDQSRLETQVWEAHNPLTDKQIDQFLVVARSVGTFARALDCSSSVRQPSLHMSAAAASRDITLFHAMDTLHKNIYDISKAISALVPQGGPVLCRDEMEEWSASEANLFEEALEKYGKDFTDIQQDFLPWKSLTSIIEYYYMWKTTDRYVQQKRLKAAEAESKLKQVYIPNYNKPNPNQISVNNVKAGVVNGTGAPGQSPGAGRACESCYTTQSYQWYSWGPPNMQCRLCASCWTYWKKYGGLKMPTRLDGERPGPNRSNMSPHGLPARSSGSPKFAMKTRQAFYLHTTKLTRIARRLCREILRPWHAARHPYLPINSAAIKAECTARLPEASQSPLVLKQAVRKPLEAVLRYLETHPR
In words: co-IP + SEC; co-expression in HEK293F of His10-Flag3-TEV-MTA1 162-546 with untagged HDAC1, RBBP4 and PWWP2A 1-373; FLAG resin, TEV cleavage, Superdex S200 in 25 mM Tris-Cl pH 7.5, 50 mM potassium acetate, 0.5 mM TCEP; SDS-PAGE. The note with it: partners not purified.

Where no end group is shown, it is not given here. The star is where a group is joined. 5FAM = O=C1OC2(c3ccc(O)cc3Oc3cc(O)ccc32)c2ccc(C(=O)*)cc21

T1 sequence (Q13547 whole entry, chain 1 of 2, one chain of several, the tested form may be a part): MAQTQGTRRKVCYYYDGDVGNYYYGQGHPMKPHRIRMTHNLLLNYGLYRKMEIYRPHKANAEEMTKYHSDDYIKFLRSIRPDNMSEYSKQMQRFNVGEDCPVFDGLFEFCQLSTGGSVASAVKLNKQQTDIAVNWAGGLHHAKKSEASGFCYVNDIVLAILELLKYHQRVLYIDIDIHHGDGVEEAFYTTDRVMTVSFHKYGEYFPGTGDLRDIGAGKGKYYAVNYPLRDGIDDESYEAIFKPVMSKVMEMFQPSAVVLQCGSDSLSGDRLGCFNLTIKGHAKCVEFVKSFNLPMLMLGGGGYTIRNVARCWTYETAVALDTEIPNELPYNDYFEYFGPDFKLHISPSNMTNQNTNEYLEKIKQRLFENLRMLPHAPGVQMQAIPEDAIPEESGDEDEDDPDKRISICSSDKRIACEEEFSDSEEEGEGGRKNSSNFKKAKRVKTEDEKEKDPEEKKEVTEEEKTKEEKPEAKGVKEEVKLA

B1: fluorescein-labelled PWWP2A peptide (residues 311–325) (peptide, UniProt Q96N64 311-325, looked up)
peptide: 5FAM-NAIKLRPRQVLCDKC
modifications: cysteine pairing not given here
notes: PWWP2A residues 311-325, contains the motif R/QPRQV/L; source: synthetic peptide (Cambridge Research Biochemicals)
Turning to B1, in test [1], the dissociation constant (Kd) is 20 to 100 µM.

B2: PWWP2A1–373, untagged, co-expressed in HEK293F cells (domain or fragment, UniProt Q96N64 1-373, looked up)
chain: MAAVAAEAAATAASPGEGGAGEAEPEMEPIPGSEAGTDPLPVTATEASVPDGETDGQQSAPQADEPPLPPPPPPPGELARSPEAVGPELEAEEKLSVRVAESAAAAPQGGPELPPSPASPPEQPPAPEEREEPPLPQPVAPALVPPAGGDSTVSQLIPGSEVRVTLDHIIEDALVVSFRFGEKLFSGVLMDLSKRFGPHGIPVTVFPKREYKDKPEAMPLQSNTFQEGTEVKCEANGAVPDDPSPVPHPELSLAESLWTSKPPPLFHEGAPYPPPLFIRDTYNQSIPQPPPRKIKRPKRKMYREEPTSIMNAIKLRPRQVLCDKCKNSVVAEKKEIRKGSSATDSSKYEDKKRRNESVTTVNKKLKTDHKVDG
notes: source: HEK293F, co-transfected, co-purified with FLAG-MTA1 (FLAG resin, gel filtration)
For B2, in test [2], the “stoichiometry N” value is approximately 1.

The record behind these values is publication PMC6143588, “A variant NuRD complex containing PWWP2A/B excludes MBD2/3 to regulate transcription at active genes” (Nature Communications, 2018).
